Reference: patent US20240100133

System: Granzyme A wild type, recombinant human, His-tagged (GzmA-WT)
Sequence (chain, as listed by the source): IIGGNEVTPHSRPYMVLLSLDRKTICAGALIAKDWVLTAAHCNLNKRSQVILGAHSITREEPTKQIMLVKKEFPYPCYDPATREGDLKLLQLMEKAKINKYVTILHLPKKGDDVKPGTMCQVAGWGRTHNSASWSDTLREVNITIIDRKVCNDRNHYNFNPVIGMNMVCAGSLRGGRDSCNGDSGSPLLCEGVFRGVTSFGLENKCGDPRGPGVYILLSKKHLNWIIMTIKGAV

Chain of human recombinant PDIA1 (Protein Disulfide Isomerase A1, residues 18-479, N-terminal His-tag) (chain, as listed by the source): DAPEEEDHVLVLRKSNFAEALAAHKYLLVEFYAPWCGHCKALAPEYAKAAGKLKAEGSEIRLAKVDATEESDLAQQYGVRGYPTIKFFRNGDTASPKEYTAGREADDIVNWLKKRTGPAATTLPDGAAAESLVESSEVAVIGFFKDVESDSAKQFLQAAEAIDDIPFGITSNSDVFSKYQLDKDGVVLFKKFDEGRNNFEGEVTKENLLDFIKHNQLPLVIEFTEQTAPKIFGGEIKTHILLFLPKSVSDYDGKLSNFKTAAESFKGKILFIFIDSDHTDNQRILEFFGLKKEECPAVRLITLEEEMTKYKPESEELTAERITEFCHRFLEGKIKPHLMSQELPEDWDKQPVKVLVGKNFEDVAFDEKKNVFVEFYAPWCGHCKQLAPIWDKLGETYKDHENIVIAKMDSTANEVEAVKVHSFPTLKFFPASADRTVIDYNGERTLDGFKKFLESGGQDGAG

human recombinant PDIA1 (Protein Disulfide Isomerase A1, residues 18-479, N-terminal His-tag)
conversion of GzmA homodimer into the 27 kDa monomer (silver stain and anti-GzmA western blot): they incubated GzmA-WT with PDIA1 and observed the monomeric band at 27 KDa, which was not present when heat-inactivated PDIA1 was used
